Assay [1] concerns the target T1, 诺如病毒GI.1病毒样颗粒 (GI.1 VP1 virus-like particle) (诺如病毒GI.1 (norovirus GI.1), UniProt Q83884 3-530).
T1 construct: VLP assembled from VP1
T1 sequence: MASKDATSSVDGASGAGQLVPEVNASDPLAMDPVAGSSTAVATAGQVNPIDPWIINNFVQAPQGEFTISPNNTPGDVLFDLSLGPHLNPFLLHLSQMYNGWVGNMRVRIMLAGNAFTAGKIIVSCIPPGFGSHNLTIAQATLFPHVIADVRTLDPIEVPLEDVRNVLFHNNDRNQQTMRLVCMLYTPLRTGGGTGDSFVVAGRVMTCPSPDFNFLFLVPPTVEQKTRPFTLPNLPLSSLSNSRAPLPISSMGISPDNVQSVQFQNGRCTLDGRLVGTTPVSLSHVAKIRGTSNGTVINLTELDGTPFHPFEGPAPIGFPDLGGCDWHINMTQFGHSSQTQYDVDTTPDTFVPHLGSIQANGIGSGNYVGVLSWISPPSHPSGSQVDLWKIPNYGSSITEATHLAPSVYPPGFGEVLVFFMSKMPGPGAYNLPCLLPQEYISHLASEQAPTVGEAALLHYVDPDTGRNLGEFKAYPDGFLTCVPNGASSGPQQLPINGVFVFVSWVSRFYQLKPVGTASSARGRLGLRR
In words: ELISA, 100 ng GI.1 VLP coated per well. (In general: ELISA stands for enzyme-linked immunosorbent assay.)

Assay [2] has as its target T2, 诺如病毒GII.4病毒样颗粒 (GII.4 VP1 virus-like particle) (诺如病毒GII.4 (norovirus GII.4), UniProt P54635 3-539).
T2 construct: also called GII.4VLP; 天然结构的GII.4病毒样颗粒
T2 chain: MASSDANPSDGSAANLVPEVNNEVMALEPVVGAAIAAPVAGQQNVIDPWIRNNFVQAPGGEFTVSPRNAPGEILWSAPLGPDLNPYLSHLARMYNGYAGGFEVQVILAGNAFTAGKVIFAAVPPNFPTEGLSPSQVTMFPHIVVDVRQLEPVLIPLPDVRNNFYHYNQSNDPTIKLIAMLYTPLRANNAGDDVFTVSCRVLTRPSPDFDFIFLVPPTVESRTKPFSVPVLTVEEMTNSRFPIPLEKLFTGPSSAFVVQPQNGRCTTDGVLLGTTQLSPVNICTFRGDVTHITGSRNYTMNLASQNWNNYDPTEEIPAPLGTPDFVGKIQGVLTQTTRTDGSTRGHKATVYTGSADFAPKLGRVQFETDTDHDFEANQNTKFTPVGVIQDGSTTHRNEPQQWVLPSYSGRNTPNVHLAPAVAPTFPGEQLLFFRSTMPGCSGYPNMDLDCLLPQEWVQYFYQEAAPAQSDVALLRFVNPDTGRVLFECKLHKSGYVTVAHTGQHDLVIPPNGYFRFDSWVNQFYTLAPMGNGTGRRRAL
In words: blocking ELISA (surrogate neutralisation), VLP to PGM; reference G9.

Assay [3] concerns the target T2, 诺如病毒GII.4病毒样颗粒 (GII.4 VP1 virus-like …). In words: blocking ELISA (surrogate neutralisation): mAb titrated against 0.5 ug/ml GII.4 VLP, binding of VLP to coated PGM read.
The target is the same in assay [4]. In words: blocking ELISA (surrogate neutralisation), VLP to PGM; reference D11.

What is called EC50 is the midpoint of the concentration-response curve.

B1: 8E1单抗 (抗诺如病毒GII.4型鼠源单克隆抗体8E1) (antibody, V domains shown)
VH: EIQLQQSGPELMKPGASVKISCKASGYSFTDYYMHWVKQSHGKSLEWIGYIDPFNGDTGYNQKFKVRATLTVDESSTTAYMHLSSLTSDDSAVYYCARDDWGSPFSYWGQGTLVTVSA
VL: DIQMTQSPSSLSASLGESVSLTCRASHDIGSNLDWLQQEPDGTIKRLIYATSTLDSGVPKRFSGSRSGSDYSLTISSLESEDFVEYYCLQYASSPRTFGGGTKLEIKR
notes: Mouse IgG1, kappa; also called m8E1
As for B1, in assay [1], the binding result is given as “no binding (tested: 5ug/ml)”. In addition, the “fold of neutralising (blocking) activity against G9” value in assay [2] was around 16 fold. In assay [3], this molecule showed an EC50 of 0.0436 µg/mL. Also, the “fold of neutralising (blocking) activity against D11” value in assay [4] was above 2 fold.

The values are drawn from patent publication CN106188281A (INST PASTEUR OF SHANGHAI CHINESE ACAD OF SCIENCES, dated 2016).
